Test results from article PMC3107159, “Resistance to organic hydroperoxides requires ohr and ohrR genes in Sinorhizobium meliloti” (BMC Microbiology, 2011).

T1: OhrR (Sinorhizobium meliloti, UniProt Q92RD0)
T1 construct: gene SMc00098; full-length ORF in pET22b+, C-terminal 6His tag kept, E. coli BL21(DE3), heparin column; homodimer
T1 sequence (Q92RD0 1-158): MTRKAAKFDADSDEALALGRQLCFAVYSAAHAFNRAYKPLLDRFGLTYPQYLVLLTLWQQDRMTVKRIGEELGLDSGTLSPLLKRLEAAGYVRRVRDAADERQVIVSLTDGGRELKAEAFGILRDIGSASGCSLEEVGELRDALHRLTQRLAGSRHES

T2: OhrR (Sinorhizobium meliloti Rm1021 (S. meliloti chromosomal DNA; Rm1021?)) (UniProt Q92MX6)
T2 sequence: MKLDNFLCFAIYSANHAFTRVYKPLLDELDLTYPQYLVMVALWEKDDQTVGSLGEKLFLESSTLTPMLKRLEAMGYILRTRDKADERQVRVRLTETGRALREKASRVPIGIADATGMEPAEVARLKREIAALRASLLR

T3: OhrR (Sinorhizobium meliloti Rm1021 (S. …, UniProt Q92MX6 1-138))
T3 sequence: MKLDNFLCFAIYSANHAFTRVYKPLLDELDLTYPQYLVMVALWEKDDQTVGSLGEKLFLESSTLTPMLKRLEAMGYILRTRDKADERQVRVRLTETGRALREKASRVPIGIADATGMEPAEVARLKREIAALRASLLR


Assays:
OhrR [1] = target: T1, OhrR; assay: non-reducing SDS-PAGE of oxidised protein; assay type: binding; settings: covalent oxidation, reversible intersubunit disulfide dimer; 15 min incubation; 0.55 nM CuOOH as printed; reversed by DTT
[2] = target: T2, OhrR (Sinorhizobium meliloti Rm1021 (S. meliloti chromosomal DNA; Rm1021?)); assay: EMSA; settings: 20 mM Tris-HCl pH 8.0, 50 mM KCl, 1 mM EDTA, 50 uM BSA, room temperature 10 min, 20 ul, 20 pmol DNA, 0-100 pmol OhrR, 6% PAGE in Tris-borate, SYBR gold
OhrR [3] = target: T3, OhrR; assay: EMSA; 1 mM DTT; 20 mM Tris-HCl pH 8.0, 50 mM KCl, 1 mM EDTA, 50 uM BSA, room temperature 10 min, 20 ul; 20 pmol DNA, 0-100 pmol OhrR; 6% PAGE in Tris-borate, SYBR gold; 1 mM DTT in Fig 3C; settings: protein: recombinant; tags: C-terminal 6xHis (pET22b+); chain copies: 2; label: none (SYBR gold stain); blunt

Row | Molecule | binding result (OhrR [3]) | other results
1 | CC(C)(OO)c1ccccc1 [CuOOH] |  | non-reducing SDS-PAGE of oxidised protein (OhrR [1]): Incubation of the protein with CuOOH or H2O2 led to the formation of a band
2 | CATGACAGTCTCCTTCCTTGTGGTTGCCGGATTTATATATCGCAAGATTAAATAGCGCGCAAATTAATTTTGCAAATTGCTTTGCCGGCGTGAATTTGCGACAATGACATCAT (double strand) [ohr-ohrR intergenic region 113 bp] |  | binding [2]: binds
3 | M1 60 bp (dsDNA) DNA 1: GGGGGGGAAGCTAGTCACCGCAAATTAATTTTGCGATACTAGAGAGATGCATATGGGGGG DNA 2: CCCCCCATATGCATCTCTCTAGTATCGCAAAATTAATTTGCGGTGACTAGCTTCCCCCCC | binds | 
4 | Mut1 60 bp (GC to AA in motif 1) (dsDNA) DNA 1: GGGGGGGAAGCTAGTCACCAAAAATTAATTTTGCGATACTAGAGAGATGCATATGGGGGG DNA 2: CCCCCCATATGCATCTCTCTAGTATCGCAAAATTAATTTTTGGTGACTAGCTTCCCCCCC | no binding | 
5 | M2 60 bp (dsDNA) DNA 1: GGGGGGGAAGCTAGTCACCGCAAATTGCTTTGCCGATACTAGAGAGATGCATATGGGGGG DNA 2: CCCCCCATATGCATCTCTCTAGTATCGGCAAAGCAATTTGCGGTGACTAGCTTCCCCCCC | binds | 
6 | Mut2 60 bp (AAA to CCC in motif 1) (dsDNA) DNA 1: GGGGGGGAAGCTAGTCACCGCCCCTTAATTTTGCGATACTAGAGAGATGCATATGGGGGG DNA 2: CCCCCCATATGCATCTCTCTAGTATCGCAAAATTAAGGGGCGGTGACTAGCTTCCCCCCC | no binding | 
